2 molecules from patent US20160311886A1, “Constructs Binding to Phosphatidylserine and Their Use in Disease Treatment and Imaging” (Board of Regents, The University of Texas System, priority 2005, published 2016) can be followed below.

In data set [1] the test system is tumor and normal vascular endothelium. The data set can be described thus: Biodistribution of 9D2 antibody and annexin V in tumor bearing mice. The class given is in vivo, mouse. How it is done: To detect externally-positioned phospholipids, methods were performed essentially as previously described (Example V; Ran et al., 1998). Tumor-bearing SCID mice were injected intravenously with either 50 μg of 9D2 or biotinylated 9D2 antibody or 100 μg of biotinylated annexin V. Sixty min later mice were sacrificed and their blood circulation was exsanguinated and perfused with heparinized saline as previously described (Burrows et al., 1992). All major organs and tumor were harvested and snap-frozen for preparation of cryosections.
Sections were blocked with PBS containing 10% serum. To prevent loss of phospholipids during slide processing, detergents and organic solvents were omitted from blocking and washing buffers. Rat IgM was detected using goat anti rat IgM specific)-HRP conjugate followed by development with carbazole or DAB (Fries et al., 1993). Biotinylated reagents were detected by streptavidin conjugated to HRP.
Tumor sections derived from mice injected with saline or rat IgM of irrelevant specificity served as negative controls. […] No signal was detected under these conditions. The number of positive vessels per high power field was determined at magnification of ×100. At least 10 fields per section were examined and the average percentage of positive vessels was calculated. […]
Structures with localized 9D2 antibody or annexin V were identified as blood vessels by morphological appearance on DAB-stained sections and by co-incident staining with the pan-endothelial cell marker, MECA 32 on serial sections of frozen tissues. Quantification on DAB-stained sections was done by counting vessels stained by MECA 32, 9D2 or annexin V in serial sections of a tumor. […] At least 10 random fields per section (0.317 mm^2/field) were scored in blinded fashion by two independent observers. The mean numbers and standard errors of vessels stained by 9D2, annexin V or MECA 32 were calculated. The mean number of 9D2 or annexin V-positive vessels determined in each tumor type group was compared to the mean number of MECA 32-positive vessels in the same tumor group. […]

Another data set concerns tumors. Put plainly: 3G4 in syngeneic and xenogeneic tumor models (overall). Format: in vivo. The settings on record: 100 μg i.p. 3 times a week.
Another data set has as its system mCMV RVG102. The data set can be described thus: Survival of mCMV-infected mice. Format: in vivo, mouse. The settings on record: past 90 days post infection; untreated 25%.
Data set [2] relates to orthotopic MDA-MB-435 and MDA-MB-231 tumors. The data set can be described thus: Macrophage infiltration during 3G4 tumor treatment. The class given is in vivo, mouse. Conditions: 100 μg i.p. three times a week for 2-3 weeks. How it is done:
Groups of 8-10 female SCID mice were injected subcutaneously with 2×10^7 L540 cells or orthotopically with 1×10^7 MDA-MB-435 or MDA-MB-231 cells. BALB/c mice were injected subcutaneously with 1×10^6 Meth A cells. Tumors were allowed to grow to an average diameter of 0.8-1 cm (L540), 0.6-0.7 cm (MDA-MB-435), 0.5-0.7 cm (MDA-MB-231), or <0.1 cm (Meth A). […] Animals were monitored three times a week for tumor size and body weight. Mice were sacrificed when tumors in control mice reached a diameter of 1.5-2 cm.

For the next data set, the target named is T1, human β2GPI (Homo sapiens, UniProt P02749).
T1 construct: Human β2GPI (hβ2GP1) was purified from human plasma essentially as described previously; from tissue; host or cells: pooled human plasma
T1 sequence (P02749 20-345): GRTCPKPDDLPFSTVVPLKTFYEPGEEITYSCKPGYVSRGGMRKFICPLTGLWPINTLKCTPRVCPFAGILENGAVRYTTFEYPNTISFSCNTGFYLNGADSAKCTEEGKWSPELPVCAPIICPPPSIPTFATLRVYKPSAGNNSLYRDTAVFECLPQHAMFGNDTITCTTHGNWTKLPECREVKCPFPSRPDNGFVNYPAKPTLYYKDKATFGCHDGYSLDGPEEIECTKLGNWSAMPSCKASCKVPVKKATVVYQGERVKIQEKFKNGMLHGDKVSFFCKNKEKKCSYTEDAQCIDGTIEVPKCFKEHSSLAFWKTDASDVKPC
The data set can be described thus: Anti-hβ2GPI ELISA. Format: binding. How it is done: The assay was performed as described above with the following modifications. hβ2GPI, nicked hβ2GPI, or recombinant hβ2GPI peptides were coated on 96-well Immunlon 2HB microtiter plates overnight at a concentration of 10 μg/ml. Plates were then blocked in 1% OVA for 1 hr. at room temperature. […] Plates were incubated for 1 hr. at 37° C. and antibody binding was detected. All ELISA studies were performed at least three times.
For orientation: ELISA stands for enzyme-linked immunosorbent assay.

Data set [3] relates to ABAE cells with exposed PS. The data set can be described thus: Live-cell binding assay on LPC-treated endothelial cells. Format: cell-based, bovine. The settings on record: DMEM+10% FBS. The essentials:
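ABAE cells cultured overnight were treated with 200 μM lysophosphatidylcholine to expose PS, then fixed in 4% paraformaldehyde and antibody binding was detected with biotin anti-mouse secondary plus FITC-streptavidin, with DAPI counterstain. Binding area is expressed as FITC/DAPI pixel ratio relative to basal binding, averaged over five 200× images (±SD).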

For the molecule “Annexin V: High affinity PS binding ligand; natural ligand binding anionic phospholipids and PE”, the “PS-positive vessels of MECA 32-stained vessels per field” value in data set [1] (B16 tumor) is recorded as 21.3 ± 6.6%; in data set [1] (L540cy tumor), 16.7 ± 3.9%; in data set [1] (MDA-MB-231 tumor, one hour after i.v. injection), 45.3 ± 5.6%.

B1: 3G4: Mouse IgG3 kappa monoclonal antibody to PS and anionic phospholipids; binding mediated by β2-glycoprotein I (antibody, listed as Mus musculus)
VH: MGWTWIFILILSVTTGVHSEVQLQQSGPELEKPGASVKLSCKASGYSFTGYNMNWVKQSHGKSLEWIGHIDPYYGDTSYNQKFRGKATLTVDKSSSTAYMQLKSLTSEDSAVYYCVKGGYYGHWYFDVWGAGTTVTVSSATTTAPSVYPLVP
VL: MDMRAPAQILGFLLLLFPGTRCDIQMTQSPSSLSASLGERVSLTCRASQDIGSSLNWLQQGPDGTIKRLIYATSSLDSGVPKRFSGSRSGSDYSLTISSLESEDFVDYYCLQYVSSPPTFGAGTKLELKRADAAPTVFIFGRIP
For B1, the “toxicity in tumor-bearing mice” value in the data set with tumors is reported as “No toxicity was observed”. Further, in the data set on mCMV RVG102, the survival was 100%. For the same molecule, the “leukocyte binding and infiltration” value in data set [2] was “caused mononuclear leukocytes to bind to the tumor vascular endothelium and infiltrate into the tumor interstitium”. In addition, in the data set with human β2GPI, the “binding to hβ2GPI coated plate” value is “bound strongly”. Further, the “binding to LPC-treated ABAE cells” value in data set [3] (20 nM) is “bound to LPC-treated ABAE cells”. Besides, the “increase in area of binding upon LPC-treatment” value in data set [3] (200 μM LPC) is recorded as “greater than 500 fold”.
